Measured values taken from patent publication US10907134B2, “Mutated genes for the catalytic protein of oplophorus luciferase and use thereof” (JNC CORPORATION, priority 2013, dated 2021).
Residue numbers refer to the chain shown, from its start. Numbers in names are those of the source.

B1: KAZ-A54I: KAZ with single amino acid substitution A54I, SEQ ID NO: 6 (protein)
chain: FTLADFVGDWQQTAGYNQDQVLEQGGLSSLFQALGVSVTPIQKVVLSGENGLKIDIHVIIPYEGLSGFQMGLIEMIFKVVYPVDDHHFKIILHYGTLVIDGVTPNMIDYFGRPYPGIAVFDGKQITVTGTLWNGNKIYDERLINPDGSLLFRVTINGVTGWRLCENILA
B2: KAZ: wild 19 kDa catalytic protein of Oplophorus luciferase (19kOLase), amino acid sequence SEQ ID NO: 2 (protein, listed as Oplophorus gracilirostris)
chain: B1 chain with I54A
B3: KAZ-Y138I: KAZ with single amino acid substitution Y138I, SEQ ID NO: 8 (protein)
chain: B1 chain with I54A, Y138I
B4: KAZ-V44I: KAZ with single amino acid substitution V44I, SEQ ID NO: 4 (protein)
chain: B1 chain with V44I, I54A
B5: KAZ-A54I-Y138I: KAZ mutant with two amino acid substitutions A54I and Y138I, SEQ ID NO: 14 (protein)
chain: B1 chain with Y138I
B6: KAZ-V44I-A54I-Y138I: KAZ mutant with three amino acid substitutions V44I, A54I and Y138I, SEQ ID NO: 16 (protein)
chain: B1 chain with V44I, Y138I
B7: KAZ-V44I-A54I: KAZ mutant with two amino acid substitutions V44I and A54I, SEQ ID NO: 10 (protein)
chain: B1 chain with V44I
B8: KAZ-V44I-Y138I: KAZ mutant with two amino acid substitutions V44I and Y138I, SEQ ID NO: 12 (protein)
chain: B1 chain with V44I, I54A, Y138I

assay: Luminescence activity of ZZ-fused KAZ mutants in crude enzyme solutions; format: biochemical; details: Table 4; ZZ-fused (pCold-ZZ-P-); 1 μL crude enzyme solution, 1 mM DTT; 1 μg coelenterazine
Experimental: To express the ZZ-fused KAZ mutants in E. coli, the recombinant plasmid prepared in EXAMPLE 6 was used. Crude enzyme solutions were prepared in the same manner as EXAMPLE 4 using the E. coli BL21 strain (Novagen, Madison, Wis.) as a host cell. The resultant crude enzyme solution, 5 μL, was subjected to SDS-PAGE analysis to confirm expression of the proteins (FIG. 2). In FIG. 2, M and 1 to 18 are the same as described in FIG. 1.
DTT was added to the crude enzyme solution obtained in EXAMPLE 7 at a final concentration of 1 mM and the mixture was allowed to stand in an ice water for more than 5 hours. A luminescence reaction was started by adding 1 μL of the crude enzyme solution to 100 μL of TE containing 1 μg of coelenterazine (manufactured by JNC Corp.). The luminescence activity was determined using a luminometer (manufactured by Atto Inc.: AB2200) for 60 seconds, and the maximum intensity of luminescence (Imax) was shown as relative luminescence activity.
To express the ZZ-fused KAZ mutants in E. coli, the recombinant plasmid constructed in EXAMPLE 16 and pCold-ZZ-P-V44I-KAZ, pCold-ZZ-P-A54I-KAZ, pCold-ZZ-P-Y138I-KAZ prepared in EXAMPLE 6 were used. Crude enzyme solutions were prepared in the same manner as EXAMPLE 7, using the E. coli BL21 strain (Novagen, Madison, Wis.) as a host cell. DTT was added to the crude enzyme solutions at a final concentration of 1 mM. The mixtures were allowed to stand over 5 hours on ice, and luminescence activities were then assayed. The luminescence activities were determined by the method described in EXAMPLE 8. Also, 5 μL of the resultant crude enzyme solutions were subjected to SDS-PAGE analysis to confirm protein expression (FIG. 4). In FIG. 4, M and 1 to 9 are as follows. M: molecular weight size markers; 1: ZZ-P-KAZ; 2: ZZ-P-KAZ-V44I; 3: ZZ-P-KAZ-A54I; 4: ZZ-P-KAZ-Y138I; 5: ZZ-P-KAZ-V44I-A54I; 6: ZZ-P-KAZ-V44I-Y138I; 7: ZZ-P-KAZ-A54I-Y138I; 8: ZZ-P-KAZ-V44I-A54I-Y138I; and 9: ZZ-P-dnKAZ.

Molecule | Relative Luminescence Activity (Imax)
B1 | 8.9
B2 | 1.0
B3 | 5.9
B4 | 6.6

same assay, conditions: Table 9; ZZ-fused (pCold-ZZ-P-); crude enzyme solution, 1 mM DTT; coelenterazine

Molecule | Relative Luminescence Activity (Imax)
B1 | 8.4
B5 | 23.1
B6 | 66.7
B7 | 15.3
B8 | 17.1
B2 | 1.0
B3 | 7.5
B4 | 7.2

same assay, conditions: ZZ-fused, crude enzyme solution; coelenterazine

Molecule | Luminescence activity compared with dnKAZ
B1 | comparable to dnKAZ

same assay, conditions: ZZ-fused, crude enzyme solution; coelenterazine (Table 4)

Molecule | Luminescence activity, times higher than that of wild KAZ [times]
B1 | 8.9
B3 | 5.9
B4 | 6.6

same assay, conditions: ZZ-fused, crude enzyme solution; coelenterazine (Table 9)

Molecule | Luminescence activity, fold higher than dnKAZ [fold] | Luminescence activity, fold higher than wild KAZ [fold]
B5 | 2.5 | 23
B6 | 7.1 | 67
B7 | 1.6 | 15
B8 | 1.8 | 17

assay: Substrate specificities of KAZ mutants (ZZ-fused, crude enzyme), f-CTZ; format: biochemical; details: 1 μg substrate, integrated for 60 seconds
Experimental: The coelenterazine analogues used for substrate specificity studies were synthesized by the methods described in publications. Specifically, bis-coelenterazine was synthesized by the method described in Nakamura et al. (1997) Tetrahedron Lett. 38: 6405-6406; furimazine by the method described in Hall et al. (2012) ACS Chem. Biol. […]; and, 6h-coelenterazine, f-coelenterazine and 6h-f-coelenterazine by the methods described in Inouye et al (2013) Biochem. Biophys. Res. Commun. 437: 23-28.
DTT was added to the crude enzyme solutions obtained in EXAMPLE 17 at a final concentration of 1 mM and the mixtures were allowed to stand in an ice water for more than 5 hours in the same manner as Example 8. A luminescence reaction was started by the addition of 1 μL each of the crude enzyme solutions to 100 μL of TE containing 1 μg of coelenterazine (manufactured by JNC Corp.) or its analogues. The luminescence activities were determined using a luminometer (manufactured by Atto Inc.: AB2200) for 60 seconds, and the maximum intensity of luminescence (Imax) was shown as relative luminescence activity.

Molecule | Relative Luminescence Activity f-CTZ Int.
B1 | 4.9
B5 | 9.2
B6 | 9.5
B7 | 5.2
B8 | 7.4
B2 | 0.8
B3 | 2.4
B4 | 2.0

same assay, conditions: 1 μg substrate, maximum intensity of luminescence

Molecule | Relative Luminescence Activity f-CTZ Imax
B1 | 8.2
B5 | 19.7
B6 | 43.8
B7 | 11.3
B8 | 13.3
B2 | 0.9
B3 | 2.4
B4 | 2.1
